In US20210317176A1 one finds EC50 (ELK-luciferase assay) and Efficacy (ELK-luciferase assay) data, which are given here for 24 substances.

For the assay, the target named is beta-klotho. Put plainly: cell-based or functional assay.
In turn, “hFc.L15.hFGF21(L98R, P171G, Y179F) (Fc fusion)” registered an EC50 (ELK-luciferase assay) of 2.6 nM and an Efficacy (ELK-luciferase assay) of 78.3%.
The corresponding values for “hFc.L15.hFGF21(L98R, P171G, GG182-3) (Fc fusion)” are 1940 nM and 84.2%.
In the same order, the values of MKEDD.hFGF21.L15.hFc (Fc fusion) are 834 nM and 83.1%.
In the case of “hFc.L15.hFGF21(L98R, P171G, A180E) (Fc fusion)”, the EC50 (ELK-luciferase assay) amounted to 1.9 nM and the Efficacy (ELK-luciferase assay) turned out to be 79.6%.
In the same order, the values of “hFc.L15.hFGF21(L98R, P171G, S181P) (Fc fusion)” are 33.8 nM and 79.5%.
The corresponding values for “hFc.L15.hFGF21(L98R, P171G, 1-179) (Fc fusion)” are 7.8 nM and 77.4%.
The substance “hFc.L15.hFGF21(L98R, P171G, S181P, P182) (Fc fusion)” came in with an EC50 (ELK-luciferase assay) of 272 nM and an Efficacy (ELK-luciferase assay) of 69.9%.
The corresponding values for “hFc.L15.hFGF21(L98R, P171G, S181L) (Fc fusion)” are 3.46 nM and 72.6%.
“hFc.L15.hFGF21(L98R, P171G, Y179A) (Fc fusion)” returned an EC50 (ELK-luciferase assay) of 43.2 nM and an Efficacy (ELK-luciferase assay) of 79.6%.
In the same order, the values of “hFc.L15.hFGF21(L98R, P171G, GGGGG182-6) (Fc fusion)” are 4310 nM and 99.7%.
Consider “hFc.L15.hFGF21(L98R, P171G, S181G) (Fc fusion)”, for which the EC50 (ELK-luciferase assay) was 3.43 nM and the Efficacy (ELK-luciferase assay) was 77.3%.
In the same order, the values of “hFc.L15.hFGF21(L98R, P171G, Y179G) (Fc fusion)” are 61 nM and 82.6%.
Consider “hFc.L15.hFGF21(L98R, P171G, S181A) (Fc fusion)”, for which the EC50 (ELK-luciferase assay) worked out at 2.66 nM and the Efficacy (ELK-luciferase assay) turned out to be 73.5%.
In the same order, the values of “hFc.L15.hFGF21(L98R, P171G, A180G) (Fc fusion)” are 3.25 nM and 76.9%.
“hFc.L15.hFGF21(1-178, L98R, P171G) (Fc fusion)” displayed an EC50 (ELK-luciferase assay) of 167 nM and an Efficacy (ELK-luciferase assay) of 63.9%.
With “hFc.L15.hFGF21(L98R, P171G, G182) (Fc fusion)”, the EC50 (ELK-luciferase assay) came to 6.5 nM and the Efficacy (ELK-luciferase assay) stood at 71.1%.
In the same order, the values of “hFc.L15.hFGF21(L98R, P171G, S181K) (Fc fusion)” are 130 nM and 87.9%.
In turn, “hFc.L15.hFGF21(L98R, P171G, Y179S) (Fc fusion)” had an EC50 (ELK-luciferase assay) of 25.3 nM and an Efficacy (ELK-luciferase assay) of 74.8%.
The corresponding values for “hFc.L15.hFGF21(L98R, P171G, A180S) (Fc fusion)” are 2.18 nM and 84.7%.
In the case of hFc.L15.hFGF21(L98R, P171G) (Fc fusion), the EC50 (ELK-luciferase assay) amounted to 2.5 nM and the Efficacy (ELK-luciferase assay) is 76.1%.
In the same order, the values of “hFc.L15.hFGF21(L98R, P171G, Y179P) (Fc fusion)” are 428 nM and 44.4%.
In the same order, the values of “hFc.L15.hFGF21(L98R, P171G, S181T) (Fc fusion)” are 3.07 nM and 77.6%.
Consider “hFc.L15.hFGF21(L98R, P171G, P182) (Fc fusion)”, for which the EC50 (ELK-luciferase assay) is 6.1 nM and the Efficacy (ELK-luciferase assay) turned out to be 85.9%.
For “hFc.L15.hFGF21(L98R, P171G, A180P) (Fc fusion)”, the EC50 (ELK-luciferase assay) was determined as 617 nM and the Efficacy (ELK-luciferase assay) was 77.1%.
